Assay results taken from patent publication US20250171520A1 (Regeneron, published 2025).

T1: human CD63 (human, UniProt P08962 2-238)
T1 construct: also called hCD63
T1 sequence: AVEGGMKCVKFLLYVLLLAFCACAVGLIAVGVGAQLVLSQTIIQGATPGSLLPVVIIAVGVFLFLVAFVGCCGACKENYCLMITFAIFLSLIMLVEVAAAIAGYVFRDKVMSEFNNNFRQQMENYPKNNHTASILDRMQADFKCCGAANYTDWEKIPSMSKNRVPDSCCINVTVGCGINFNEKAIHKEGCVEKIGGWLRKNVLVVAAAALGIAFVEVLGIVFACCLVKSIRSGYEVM


Experiments:
[1] = target: T2, recombinant human CD63 extracellular loop 2 expressed with a C-terminal Myc-Myc-hexahistidine (human); assay: SPR (Biacore), captured mAb, 37°C
T2 construct: also called hCD63 EC loop 2-MMH; human CD63 EC loop2-MMH
Protocol: (§1) Equilibrium dissociation constants (KD) for different CD63loop reagents binding to purified anti-CD63 monoclonal antibodies were determined using a real-time surface plasmon resonance based Biacore T200 biosensor or Biacore 2000 biosensor. All binding studies were performed in 10 mM HEPES, 150 mM NaCl, 3 mM EDTA, and 0.05% v/v Surfactant Tween-20, pH 7.4 (HBS-ET) running buffer at 25° C. and 37° C. The Biacore CM5 sensor chip surface was first derivatized by amine coupling with either a rabbit anti-mouse Fc specific polyclonal antibody (GE Healthcare, Cat #BR100838) or an anti-human Fab kit (GE Healthcare, Cat #28958325) to capture anti-CD63 monoclonal antibodies. Binding studies were performed on either recombinant human CD63 extracellular loop 2 expressed with a C-terminal Myc-Myc-hexahistidine (hCD63 EC loop 2-MMH; SEQ ID NO:80) or recombinant human CD63 extracellular loop 2 expressed with a C-terminal human Fc tag (hCD63 EC loop 2-hFc; SEQ ID NO:81). Different concentrations of hCD63 EC loop 2-MMH or hCD63 EC loop 2-hFc (either tested at 50 nM-12.5 nM in a 4-fold dilution or at 90 nM-0.37 nM in 3-fold serial dilutions) were first prepared in HBS-ET running buffer and were injected over the anti-mouse Fc captured anti-CD63 monoclonal antibody surface for 4 minutes at a flow rate of […] or 50 μL/minute, while the dissociation of monoclonal antibody bound CD63 reagent was monitored for 8 or 10 minutes in HBS-ET running buffer. The association rate (kₐ) and dissociation rate (kd) were determined by fitting the real-time binding sensorgrams to a 1:1 binding model with mass transport limitation using Scrubber 2.0c curve-fitting software. Binding dissociation equilibrium constant (KD) and dissociative half-life (t½) were calculated from the kinetic rates as: […]
(§2) Binding kinetics parameters for human CD63 EC loop 2 protein binding to different anti-CD63 monoclonal antibodies of the invention at 25° C. and 37° C. are shown in Tables 15 through 18.

[2] = target: T3, recombinant human CD63 extracellular loop 2 expressed with a C-terminal human Fc tag (human); assay: SPR (Biacore), captured mAb, 37°C
T3 construct: also called hCD63 EC loop 2-hFc; human CD63 EC loop2-hFC
Protocol: as §1, §2

human CD63 [3] = target: T1, human CD63; assay: ECL cell binding, LNCAP cells
Protocol: (§3) LNCAP cells were determined to have a lower human CD63 copy number than U87MG cells. Non-transfected NIH3T3 cells, which have no detectable expression of human CD63 by fluorescence activated cell sorting (FACS), were included as a negative control.
(§4) Briefly, cell lines were rinsed once in PBS buffer without Ca²⁺/Mg²⁺ and incubated for 10 minutes at 37° C. with Enzyme Free Cell Dissociation Solution (Millipore, Cat #S-004-C) to detach the cells. Cells were then washed once with PBS with Ca²⁺/Mg²⁺ and counted with a Cellometer™ Auto T4 cell counter (Nexcelom Bioscience, LLC). Approximately 2.0×10⁴ NIH3T3/hCD63, LNCAP, U87MG or NIH3T3 cells were seeded separately onto 96-well carbon electrode plates (Meso Scale Discovery, Cat #L15XB-6) and were then incubated for one hour at 37° C. Nonspecific binding sites were blocked with 2% BSA (w/v) in PBS with Ca²⁺/Mg²⁺ for one hour at room temperature (RT). Solutions containing anti-CD63 antibodies or isotype control antibodies at a range of concentrations (1.7 pM to 100nM) in 0.5% BSA (w/v) in PBS with Ca²⁺/Mg²⁺, as well as control buffer alone, were then added in duplicate to the plate-bound NIH3T3/hCD63, LNCAP, U87MG or NIH3T3 cells and incubated for one hour at RT. Plates were subsequently washed to remove unbound antibodies using an AquaMax2000 plate washer with a cell washing head (MDS Analytical Technologies). […] Plates were washed and then incubated with Read Buffer (MSD, Cat #R92TD-2) according to the manufacturer's instructions. Luminescent signals were measured using a SECTOR Imager (MSD). Luminescence intensity, measured in relative light units (RLU), was recorded to indicate the binding intensity of each antibody at the range of concentrations tested. The ratio of signal detected with 3.7 nM antibody binding to human CD63 expressing cells compared to the same concentration of antibody binding to negative cells was reported as an indication of specificity of CD63 binding.

human CD63 [4] = target: T1, human CD63; assay: flow cytometry, HEK293 cells endogenously expressing human CD63
Protocol: Relative cell surface binding of the anti-CD63 antibodies to human CD63 expressing cells was accessed via flow cytometry using CD63 positive HEK293 cells (ATCC, Cat #CRL-1573), which endogenously express human CD63, and CD63 negative HEK293/CD63 knock out cells. For the assay, cells were plated in PBS without calcium and magnesium (VWR, Cat #45000-446), containing 2% FBS (Saradigm Cat #1500-500) (Staining Buffer) in 96 well V-bottom plates (Axygen Scientific, Cat #P-96-450-V-C-S). Cells were then incubated with anti-CD63 antibodies or isotype control antibodies at concentrations ranging from 100 nM to 1.7 pM for 30 minutes on ice. Wells containing no antibody were used as controls. HEK293/CD63KO cells were stained with only the highest concentration (100 nM) of the antibodies. […] Cells were then washed and fixed using a 50% solution of Cytofix (BD Biosciences, Cat #554655) diluted in PBS. Samples were run on the Intellicyte Hypercyt flow cytometer and results were analyzed in ForeCyt software (Intellicyte) to calculate the mean fluorescent intensity (MFI). Measured values were analyzed using a four parameter logistic equation over a 12-point response curve using GraphPad Prism and the resulting EC₅₀ values are reported (Table 12). The signal to noise ratio (S/N) was determined by calculating the ratio of the anti-CD63 antibodies or the control antibodies MFI to the wells containing no antibodies (Table 12).

human CD63 [5] = target: T1, human CD63; assay: ECL cell binding, NIH3T3/hCD63 cells
Protocol: as §3, §4

[6] = target: T2, recombinant human CD63 extracellular …; assay: SPR (Biacore), captured mAb, 25°C
Protocol: as §1, §2

[7] = target: T3, recombinant human CD63 extracellular …; assay: SPR (Biacore), captured mAb, 25°C
Protocol: as §1, §2

human CD63 [8] = target: T1, human CD63; assay: cell-based or functional assay
human CD63 [9] = target: T1, human CD63; assay: ECL cell binding, U87MG cells
Protocol: as §3, §4

T3 sequence (chain, as listed by the source limits assumed): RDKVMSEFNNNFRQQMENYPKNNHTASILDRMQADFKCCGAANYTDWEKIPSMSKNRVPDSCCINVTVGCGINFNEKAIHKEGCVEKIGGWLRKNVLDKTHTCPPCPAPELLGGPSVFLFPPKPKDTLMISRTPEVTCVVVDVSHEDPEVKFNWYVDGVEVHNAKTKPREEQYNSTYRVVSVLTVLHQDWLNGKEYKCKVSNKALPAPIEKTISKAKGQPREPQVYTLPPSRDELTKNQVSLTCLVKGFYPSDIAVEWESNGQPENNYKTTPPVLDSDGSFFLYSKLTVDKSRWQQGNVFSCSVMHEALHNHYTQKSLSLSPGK
T2 sequence (chain, as listed by the source limits assumed): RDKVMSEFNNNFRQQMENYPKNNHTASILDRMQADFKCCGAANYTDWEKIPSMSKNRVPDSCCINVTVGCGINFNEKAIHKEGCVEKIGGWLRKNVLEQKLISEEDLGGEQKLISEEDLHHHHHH

50 nM Ag Bound (RU) [1] [RU]	t½ [1] [min]	50 nM Ag Bound (RU) [2] [RU]	t½ [2] [min]	EC50 (human CD63 [3]) [nM]	ratio at 3.7 nM Ab of cell binding signal (RLU) to human CD63 cells relative to negative NIH3T3 (human CD63 [3]) [fold]	HEK293 (S/N), MFI of antibody over wells with no antibody (human CD63 [4])	EC50 (human CD63 [5]) [nM]	ratio at 3.7 nM Ab of cell binding signal (RLU) to human CD63 cells relative to negative NIH3T3 (human CD63 [5]) [fold]	50 nM or 90 nM Ag Bound (RU) [6] [RU]	t½ [6] [min]	50 nM Ag Bound (RU) [7] [RU]	t½ [7] [min]	ratio at 3.7 nM Ab of cell binding signal (RLU) to human CD63 cells relative to negative NIH3T3 (human CD63 [9]) [fold]	EC50 (human CD63 [9]) [nM]	Kd [6] [nM]	koff [6] [s⁻¹]	kon [6] [M⁻¹ s⁻¹]	Binder	T47D (nM) IC50, indirect cytotoxicity with anti-mFc Fab-MMAF (human CD63 [8]) [nM]
58	57	138	236	0.21	20	26.7	0.28	230	65	41	134	248	175	–	–	–	–	H2M12450N (antibody, V domains shown, also called anti-CD63 antibody) VH: QVQLQESGPKVVKPSETLSLTCTVSGGSISSYYWNWIRQSPGKGLEWIGYTKRGYTDYNPSLRSRVTISEDTSKNQFSLRISSVTAADTAVYYCAQMGWGSHAFDMWGQGTMVAVSS VL: EIVLTQSPGTLSLSPGERATLSCRASQSVNSRYLAWYQQKPGQAPRLLIYGASSRATGIPDRCSGSGSGTDFTLTISRLEPEDFAVYYCQQYGSSPWTFGQGTKVEIK	0.24
44	6	118	35	1.7	7	31.6	0.57	91	52	27	107	138	52	0.95	–	–	–	H1M12451N (antibody, V domains shown, This one was detected or captured with anti-mouse Fc reagents; also called HIM12451; anti-CD63 antibody) VH: QVQLQESGPGLMKPSETLSLTCTVSGGSFSSYYWNWIRQSPGKGLEWIGYIRYSGDTNYKPSLKSRFTISIDTSKNLFSLRLKSVTAADTAVYYCARMGLGSDAFDIWGQGTMVTVSS VL: EIVLTQSPGTLSLSPGERATLSCRASQSVNNNYLAWYQQKPGQAPRLLIYGVFNRATNIPDRFSGSGSGTDFTLTISRLEPEDFAVYYCQQYGSSPWTFGQGTKVEIK	–
31	1	123	6	0.35	18	21	0.29	256	42	6	117	23	171	0.79	–	–	–	H2M12395N (antibody, V domains shown, also called anti-CD63 antibody) VH: QVQLQESGPRLVKPSETLSLTCIVSGGSISNFYWNWIRQSPGKGLEWIGYFFYTGTIDYNPSLKSRVTISLDTSKNQFSLNLRLLTAADAAVYYCARMGLGANAFDIWGHGTMVTVSS VL: EIVLTQSPGTLSLSPGERATLSCRASQHVSSNYLAWYQQKPGQAPRLLIYGGSSRATGIPDRFSGSGSGTDFTLTISRLEPADFAVFYCQQYGNSPWTFGQGTKVEMK	–
–	–	–	–	–	–	–	–	–	24	157	–	–	–	–	0.53	7.37e-05	139000	H4H12450N (antibody, V domains shown, also called anti-CD63 antibody) VH: QVQLQESGPKVVKPSETLSLTCTVSGGSISSYYWNWIRQSPGKGLEWIGYTKRGYTDYNPSLRSRVTISEDTSKNQFSLRISSVTAADTAVYYCAQMGWGSHAFDMWGQGTMVAVSS VL: not shown	–
